The labels stand for the following.
T1: LIN-15B protein (C. elegans, UniProt Q27395 1-1440, limits assumed)
T1 construct: Tested in a yeast two-hybrid assay; The fusion partners and construct limits are not described
T1 sequence (looked up): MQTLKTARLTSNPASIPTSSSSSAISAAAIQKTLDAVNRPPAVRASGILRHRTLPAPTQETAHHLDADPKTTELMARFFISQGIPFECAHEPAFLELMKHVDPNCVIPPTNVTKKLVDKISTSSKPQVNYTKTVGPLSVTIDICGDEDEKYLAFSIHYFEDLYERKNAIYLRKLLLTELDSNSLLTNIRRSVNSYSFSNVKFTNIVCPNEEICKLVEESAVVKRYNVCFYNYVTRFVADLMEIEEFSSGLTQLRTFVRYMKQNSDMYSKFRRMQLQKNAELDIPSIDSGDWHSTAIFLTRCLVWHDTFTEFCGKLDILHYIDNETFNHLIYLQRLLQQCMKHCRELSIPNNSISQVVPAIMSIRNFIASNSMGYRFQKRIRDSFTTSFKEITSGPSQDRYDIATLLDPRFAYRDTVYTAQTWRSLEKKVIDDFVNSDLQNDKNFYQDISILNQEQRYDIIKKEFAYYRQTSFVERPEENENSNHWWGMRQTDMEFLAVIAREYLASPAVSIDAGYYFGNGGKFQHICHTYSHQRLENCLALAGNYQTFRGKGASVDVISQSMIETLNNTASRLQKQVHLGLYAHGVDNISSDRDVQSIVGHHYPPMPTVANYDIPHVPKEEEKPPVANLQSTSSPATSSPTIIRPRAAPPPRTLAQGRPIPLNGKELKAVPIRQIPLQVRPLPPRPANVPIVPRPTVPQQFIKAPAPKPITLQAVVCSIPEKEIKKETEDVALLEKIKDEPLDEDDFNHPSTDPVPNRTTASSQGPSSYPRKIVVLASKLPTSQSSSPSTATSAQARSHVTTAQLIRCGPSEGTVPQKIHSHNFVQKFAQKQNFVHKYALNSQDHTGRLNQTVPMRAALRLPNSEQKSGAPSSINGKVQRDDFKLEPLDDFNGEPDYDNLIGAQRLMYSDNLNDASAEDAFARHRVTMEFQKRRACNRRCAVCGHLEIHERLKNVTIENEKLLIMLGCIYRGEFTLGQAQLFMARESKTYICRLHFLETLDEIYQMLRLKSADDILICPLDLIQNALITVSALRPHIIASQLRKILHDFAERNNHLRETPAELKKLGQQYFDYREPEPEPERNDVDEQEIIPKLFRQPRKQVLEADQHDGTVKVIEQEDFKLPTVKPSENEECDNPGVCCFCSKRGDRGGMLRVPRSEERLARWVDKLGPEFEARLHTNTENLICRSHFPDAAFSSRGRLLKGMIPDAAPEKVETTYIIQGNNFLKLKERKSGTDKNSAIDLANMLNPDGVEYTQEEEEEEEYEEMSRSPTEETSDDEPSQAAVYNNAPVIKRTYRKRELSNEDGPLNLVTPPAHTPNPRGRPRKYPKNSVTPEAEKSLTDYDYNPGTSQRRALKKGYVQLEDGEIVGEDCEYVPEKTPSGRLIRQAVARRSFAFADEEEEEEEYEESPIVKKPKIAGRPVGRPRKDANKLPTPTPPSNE

B1: LIN-9 protein (other, C. elegans, UniProt P30630 1-644, looked up)
chain: MSSAVRSPRKKAASDTSDPDRTSSPYSLRETSKVPSRYRNEELYLSPSRSIKRTGSPKKSPAKRLNGGRDSPSVNSLTRNSSLTMLAKAALDYESSSCALEYIFQPKEERRPPRRALALSPPPAPSNDLLAKDLEMIEMHQNLVAGLDDLDNPANMTNEAVEHRDTQSFFNMFSTDQERSAMMKQFKTYKNQTSEDVSTFMRANIKKLYNLLRYKKARQWVMCEFFYSAIDEQIFKEENEFATIIRESFPNLKNWNLTRIEWRSIRKLLGKPRRCSKVFFEEERMYLEEKRMKIRSVYEGSYLNDPSIDLKDLPAKLPRPMVVGNRVFARIRNPYDGIYSGIIDAVIPKGFRIIFDKPDIPPTLVSDTEILLDGKLDLLSIAYFIEQANSKLPSGVRPFVAAVRDSSHPHLVRDVLVSRKIERSGGPLMGPNDERLNGKNAEMVGNFPLKFLVNLVKLTKLIDIKKGLIRQLNELNADAEIQNMTSDKYSKAFQEKYAKTIIDLEHVNQNIDINMNGIQDHHMYFSSNDISTSNMKPEAVRQMCSQQAGRFVEHCNQGLNVENVHALTLIQSLTAVLLQVRTMGTQKISAVDLQSLGDAISEIRTAIHPRNVAFFQDYVEVHMKQFHTIMLESGALAGTVSNRK
notes: Tested in a yeast two-hybrid assay; The fusion partners and construct limits are not described
B2: LIN-15A protein (other, C. elegans, UniProt Q27365 1-719, looked up)
chain: MLAPAAPAKDVVSADEKEEIIAKRKFRMKNVDAMRMSSLANDRMAFNKKCNALAMKFVKSAGIGTDALQLTCFQELVRHFNPIAAVVVGVKREPNSNVQAEKKTIPKVKTIQTPTQSMESVRLLQEKKASATEEQSAESASIMKHFANTIPNSTPTQSVKDVLTAAASKGQFKSSAEIFSHFPSEPSPSKPRATREGSQPSDYTYCTYLTPCILCEKALLMRESIAMTDNEAVKVLMAAVMSGHFRMATAEKAIRHERLRMCYDHVDFVYEMMCDAFEAKTESEINEMPPDRLMRGHDIYRALKRVGDLHKGKVTSNTPLYSFKNSIKSYYRNHVPRMVNGSLSKPSPKPFSELVALLQSVPPSTNLNELLNHNLSLSDADKQELIQLINGKDNRFTSRRRKIEDILDNKFAAAAAKAYRDHSEDAPSEPYIPNQSEMQNTVERRKRKLHSPEQDDAGSSSISWNAKKTKTPIDYVHLATRVLEGHSIADEALLHKSKVSYARNAFGEKPSSPTPPSAPLKFCVVNGKKYLRFENGTGPPKVVVQGNVVLRTNTLKDALTTAPRAQNQPSTSTDSSSSSEMEGIRQSFGAPQKEEEEEELVPTLLQNKPTHVESSSPVEKKPPTKTNVEKPAVRLGRMLTTAFGSMSYRTRKSVENKTDLLNQPTSASPRRMIKVVRNRNPHLAKQVAAAPSEPKHIPPTHMEKKPEELLMDPKPEPIF
notes: as for B1

The target of experiment [1] is B2. Briefly: yeast two-hybrid.
Experiment [2] addresses T1, LIN-15B protein. Briefly: yeast two-hybrid.

For B1, the binding result in experiment [1] and in experiment [2] was “no binding” in each case. For the molecule B2, in experiment [2], the binding result is on record as “no binding”.

Source of the values: patent US6977175 (MIT, dated 2005).
